Results from paper PMC3664427 (Circulation research, 2011).

Assays:
[1] = target: p53 DNA binding domain (UniProt P04637 94-312); assay: SPR
[2] = target: fluorescein-labelled p53DBD (UniProt P04637 94-312, fluorescein label (site not stated)); assay: fluorescence polarisation
Sequence of fluorescein-labelled p53DBD (P04637 94-312): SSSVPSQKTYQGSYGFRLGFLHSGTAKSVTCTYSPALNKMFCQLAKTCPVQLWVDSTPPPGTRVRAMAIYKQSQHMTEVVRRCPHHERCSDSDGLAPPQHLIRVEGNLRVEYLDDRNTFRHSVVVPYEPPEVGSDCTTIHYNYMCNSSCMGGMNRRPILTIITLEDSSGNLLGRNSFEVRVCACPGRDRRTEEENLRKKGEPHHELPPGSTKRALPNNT

Sequence of p53 DNA binding domain (P04637 94-312): as above

Kd [1]: 765 ± 30 nM | Kd [2]: 2200 nM
B1: telethonin (natural protein, human, UniProt O15273 1-167, looked up)
chain: MATSELSCEVSEENCERREAFWAEWKDLTLSTRPEEGCSLHEEDTQRHETYHQQGQCQVLVQRSPWLMMRMGILGRGLQEYQLPYQRVLPLPIFTPAKMGATKEEREDTPIQLQELLALETALGGQCVDRQEVAEITKQLPPVVPVSKPGALRRSLSRSMSQEAQRG
